The target of this test is human BKCa (Slo1) RCK1 domain (322IIE...HDP667) carrying the D362A/367A mutations (human). Briefly: SEC. A general note: Size exclusion chromatography separates by hydrodynamic size, large species first.

A value given as a limit tells only on which side of the number the result lay.

What is called stoichiometry N is a count of units in the complex or per binding partner.

With “human BKCa (Slo1) RCK1 domain (322IIE...HDP667) carrying the D362A/367A mutations (domain or fragment)”, the stoichiometry N is greater than 16.

Values taken from PMC2912072.
